Assay results: publication PMC10930109

Target: Envelope (E) protein of tick-borne encephalitis virus strain Sofjin-Chumakov (Far-Eastern subtype), (Tick-borne encephalitis virus, strain Sofjin-Chumakov) (UniProt P07720)
Test: cryo-EM structure

With “Envelope (E) protein of tick-borne encephalitis virus strain Sofjin-Chumakov (Far-Eastern subtype), (from UniProt P07720) (natural protein)” as the substance, how does the stoichiometry N read?
The stoichiometry N was 2.
